Patent US20120276102A1 (Pfizer, published 2012)
Positions count from the first letter of the chain named.

T1: human gamma (γ) common chain expressed on CHO cells (human, UniProt P31785 23-369)
T1 construct: whole, on cells; Control protein; also called human IL-2R-γ common subunit; human γ-common
T1 sequence (looked up): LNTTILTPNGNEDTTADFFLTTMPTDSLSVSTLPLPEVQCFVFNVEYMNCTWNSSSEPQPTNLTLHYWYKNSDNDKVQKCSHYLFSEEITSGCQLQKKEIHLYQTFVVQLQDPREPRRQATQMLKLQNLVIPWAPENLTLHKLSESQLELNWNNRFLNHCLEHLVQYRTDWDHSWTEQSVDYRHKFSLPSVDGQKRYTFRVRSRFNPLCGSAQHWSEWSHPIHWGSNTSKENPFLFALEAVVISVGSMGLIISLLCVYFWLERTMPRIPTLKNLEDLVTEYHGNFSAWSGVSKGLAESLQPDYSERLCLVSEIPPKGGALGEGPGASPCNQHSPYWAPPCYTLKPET

B1: scFv L8 (scFv)
scFv: QVQLQESGPGLVKTSETLSLTCAVSGYSISSGYYWGWIRQPPGKGLEWIGSISHTGNTYYNPPLKSRVTISVDTSKNQFSLKLSSVTAADTAVYYCARGGGISRPEYWGKGTLVTVSSGGGGSGGGGSGGGGSALSSELTQDPPVSVALGQTVTLTCQGDSLRTYYASWYQQKSGQAPILLLYGKHKRPSGIPDRFSGSTSGDTASLTITGAQAEDEADYYCTTRSTQGNPHVLFGGGTQLTVL
B2: scFv L17 (scFv)
scFv: B1 scFv with T223S, T227R, Q228K
B3: scFv L16 (scFv)
scFv: B1 scFv with T223V, T227A, Q228K
B4: scFv L21 (scFv)
scFv: B1 scFv with T223A, S226A, T227V, Q228R
B5: scFv L18 (scFv)
scFv: B1 scFv with T223V, T227V, Q228K
B6: scFv L15 (scFv)
scFv: B1 scFv with T223S, S226A, T227I, Q228H
B7: scFv L12 (scFv)
scFv: B1 scFv with T223V, T224A, S226G, Q228R
B8: scFv L14 (scFv)
scFv: B1 scFv with T223M, T224A, T227R, Q228K
B9: scFv L24 (scFv)
scFv: B1 scFv with T223I, T224A, T227N, Q228K
B10: scFv L11 (scFv)
scFv: B1 scFv with T223S, T224S, T227R, Q228H
B11: scFv L25 (scFv)
scFv: B1 scFv with T227N, Q228K
B12: scFv L19 (scFv)
scFv: B1 scFv with T223V, T224A, S226A, T227V, Q228R
B13: scFv L9 (scFv)
scFv: B1 scFv with T223V, T224A, T227N, Q228K
B14: scFv L13 (scFv)
scFv: B1 scFv with T223V, S226N, T227R, Q228Y
B15: scFv L20 (scFv)
scFv: B1 scFv with T223V, T224S, T227A, Q228K
B16: AbM (antibody, IgG1, V domains shown)
VH: QVQLQESGPGLVKPSETLSLTCAVSGYSISSGYYWGWIRQPPGKGLEWIGSISHTGNTYYNPPLKSRVTISVDTSKNQFSLKLSSVTAADTAVYYCARFFGFGRPEYWGQGTLVTVSS
VL: SSELTQDPAVSVALGQTVRITCQGDSLRTYYASWYQQKPGQAPVLVIYGKHKRPSGIPDRFSGSSSGNTASLTITGAQAEDEADYYCVTRNRYGNPHVLFGGGTQLTVL
notes: As for AbA: IgG1/lambda, CDR3 graft, residue limits derived; also called VH6/VL13
B17: AbN (antibody, IgG1, V domains shown)
VH: B16 VH
VL: B16 VL with V88I, T89A, N91S, R92N, Y93K
notes: As for AbA: IgG1/lambda, CDR3 graft, residue limits derived; also called VH6/VL24

What follows are binders tested against T2, murine IL-21R extracellular domain His-Flag fusion protein (murine, UniProt Q9JHX3 20-237) (assay: competition ELISA; competitor plate-bound 18A5 IgG).
T2 construct: Biotinylated in the ELISAs; also called mIL-21R-H/F; murine IL-21R-H/F
Experimental: Blocked plates were washed 3× with PBS, and 50 μl/well of scFv/IL-21R mixtures were transferred to the appropriate plates and incubated for 1 hr at RT. Plates were washed 5× with PBS prior to the addition of a 1:6000 dilution of horseradish peroxidase-conjugated streptavidin (Southern Biotech, Birmingham, Ala.) secondary antibody to detect bound biotinylated mIL-21R-H/F. Plates were then incubated for 1 hr at RT and washed 7× with PBS. Signal was developed using 3,3′,5,5′-tetramethylbenzidine (TMB), the reaction stopped with H₂SO₄, and the absorbance read at 450 nm on an ENVISION™ plate reader (Perkin Elmer).

Row | IC50 | Binder
1 | 7 nM | B1
2 | 12 nM | B2
3 | 6 nM | B3
4 | 28 nM | B4
5 | 8 nM | B5
6 | 14 nM | B6
7 | 8 nM | B7
8 | 6 nM | B8
9 | 6 nM | B9
10 | 6 nM | B10
11 | 9 nM | B11
12 | 15 nM | B12
13 | 7 nM | B13
14 | 7 nM | B14
15 | 5 nM | B15

The binders below were run against T3, human IL-21R expressed on cells (human, UniProt Q9HBE5 20-538) (assay: cell ELISA, CHO cells).
T3 construct: also called human IL-21R-BaF3; human IL-21R-TF1
T3 sequence (Q9HBE5 20-538 limits assumed): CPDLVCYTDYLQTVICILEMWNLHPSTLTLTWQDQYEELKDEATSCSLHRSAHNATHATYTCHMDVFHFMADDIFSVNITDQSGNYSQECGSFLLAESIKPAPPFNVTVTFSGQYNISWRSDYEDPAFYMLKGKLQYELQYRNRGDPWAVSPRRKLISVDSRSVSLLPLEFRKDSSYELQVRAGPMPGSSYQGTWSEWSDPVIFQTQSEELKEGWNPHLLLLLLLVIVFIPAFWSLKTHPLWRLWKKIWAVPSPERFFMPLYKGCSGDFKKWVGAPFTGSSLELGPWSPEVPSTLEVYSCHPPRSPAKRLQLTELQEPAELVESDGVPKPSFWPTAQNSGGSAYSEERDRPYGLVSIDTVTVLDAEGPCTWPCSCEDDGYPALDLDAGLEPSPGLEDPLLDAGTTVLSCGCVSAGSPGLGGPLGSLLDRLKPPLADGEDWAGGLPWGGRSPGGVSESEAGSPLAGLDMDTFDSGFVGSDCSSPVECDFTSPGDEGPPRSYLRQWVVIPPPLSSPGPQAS
Experimental: (§1) A subset of binding proteins was tested for binding to rat, cynomolgus monkey, human IL-21R, or human IL-2R-γ common subunit expressed transiently on the surfaces of CHO-PA-Dukx cells. Cells were transfected 48 hr prior to the assay. On the day of the assay, cells were washed gently 5× in PBS containing 0.9 mM CaCl₂ and 0.45 mM MgCl₂ (PBS/CaMg) on an automated plate washer (Titertek, Huntsville, Ala.), and blocked for 1 hr at RT in PBS/CaMg/5% nonfat dry milk. Conditioned media from transiently expressed anti-IL-21R IgGs were serially diluted in blocking buffer and added to the cells in the blocked plates for 1 hr at RT. Cells were washed 5× with PBS/CaMg and then incubated with horseradish peroxidase-conjugated anti-human IgG for 1 hr at RT. Cells were then washed 10× in PBS/CaMg and all of the wash buffer was removed. Cells were incubated with 100 μl TMB until the color reaction reached saturation, stopped with 100 μl of 0.18 M H₂SO₄, and read at A450 on a Perkin Elmer ENVISION™ plate reader.

Row | A450 (13 nM Ab) | Binder
16 | 1.2 A450 | B16
17 | 1.21 A450 | B17

What follows are binders tested against T1, human gamma (γ) common chain expressed … (assay: cell ELISA, CHO cells).
Experimental: as §1

Row | A450 (13 nM Ab) | Binder
18 | 0.136 A450 | B17

Each binder was assayed against T4, rat IL-21R expressed on cells (rat) (assay: cell ELISA, CHO cells).
T4 construct: whole, on cells
Experimental: as §1

Row | A450 (13 nM Ab) | Binder
19 | 0.78 A450 | B16
20 | 0.702 A450 | B17

What follows are binders tested against T5, cynomolgus monkey IL-21R expressed on cells (cynomolgus monkey, UniProt G7Q0S8 41-559) (assay: cell ELISA, CHO cells).
T5 construct: whole, on cells
Experimental: as §1

Row | A450 (13 nM Ab) | Binder
21 | 1.45 A450 | B16
22 | 1.5 A450 | B17

These binders were tested against T3, human IL-21R expressed on cells (assay: cell-based or functional assay).

Row | IC50, Human IL-21R-BaF3 Neutralization Assay | IC50, Human IL-21R-TF1 Neutralization Assay | Binder
23 | 4.1 nM | 51.3 nM | B1
24 | 1.6 nM | 60.3 nM | B2
25 | 3.7 nM | 67.4 nM | B3
26 | 9.4 nM | ~100 nM | B4
27 | 3.7 nM | 54.4 nM | B5
28 | 3.3 nM | 30.3 nM | B6
29 | 2.6 nM | 54.9 nM | B7
30 | 3.2 nM | 33.5 nM | B8
31 | 2.4 nM | 18.7 nM | B9
32 | 4.2 nM | 38.3 nM | B10
33 | 3.7 nM | 33.1 nM | B11
34 | 4.5 nM | 35.3 nM | B12
35 | 2.8 nM | 27.7 nM | B13
36 | 11 nM | 257 nM | B14
37 | 3.1 nM | 57.5 nM | B15

Each binder was assayed against T6, murine IL-21R expressed on cells (murine, UniProt Q9JHX3 20-529) (assay: cell-based or functional assay).

Row | IC50, Murine IL-21R-BaF3 Neutralization Assay | Binder
38 | 715 nM | B1
39 | 2.66 nM | B2
40 | 4.71 nM | B3
41 | 162 nM | B4
42 | 8.34 nM | B5
43 | 53.5 nM | B6
44 | 87.8 nM | B7
45 | 6.49 nM | B8
46 | 3.73 nM | B9
47 | 10 nM | B10
48 | 15.6 nM | B11
49 | 13.6 nM | B12
50 | 3.61 nM | B13
51 | 1.25 nM | B14
52 | 15.4 nM | B15

Target: T3, human IL-21R expressed on cells
Assay: cell-based or functional assay
Remark: another data set of the same source

Row | Human IL-21R-BaF3 Proliferation IC50 | Human IL-21R-TF1 Proliferation IC50 | Binder
53 | 1.08 nM | 4.22 nM | B16
54 | 0.5 nM | 1.59 nM | B17

Target: T6, murine IL-21R expressed on cells
Assay: cell-based or functional assay
Remark: another data set of the same source

Row | Murine IL-21R-BaF3 Proliferation IC50 | Binder
55 | 0.125 nM | B16
56 | 0.435 nM | B17

What follows are binders tested against T5, cynomolgus monkey IL-21R expressed on … (assay: cell-based ELISA on CHO cells transiently expressing cynomolgus monkey IL-21R; HRP anti-human IgG, A450).
Experimental: FIG. 6(a-l) depicts the binding of 21 anti-IL-21R IgGs to CHO cells transiently expressing human IL-21R (FIGS. 6a-c), rat IL-21R (FIGS. 6d-f), cynomolgus monkey IL-21R (FIGS. 6g-i), and human gamma common chain (FIGS. 6j-1). CHO cells were transiently transfected with IL-21R or the control gamma common chain, and binding was detected with HRP-conjugated anti-human IgG in a cell-based ELISA.
as §1

Row | EC50 (read off the curve) | Binder
57 | ~3 nM | B16
